Source: patent publication US20240101642A1

Experiments:
Experiment in all cases: cell-based or functional assay
[1] = biological target: sortase-ligated phosphopeptide β2AR reconstituted in HDL particles (HDL-β2ARpp) (human) (UniProt P07550)
[2] = biological target: phosphopeptide-ligated β2AR with a deletion of the third intracellular loop (β2ARppΔ238-267), in HDL particles (human) (UniProt P07550)
[3] = biological target: β2AR ligated to a non-phosphorylated version of the V2R peptide, in HDL particles (β2ARnp) (human) (UniProt P07550)
[4] = biological target: wild-type (WT) β2AR reconstituted in high-density lipoprotein particles (HDL-β2AR), non-phosphorylated (human) (UniProt P07550)

Row | log IC50 of isoproterenol (ISO), competition radioligand binding, in the presence of βarr1 Δ62-77 (no transducer: -6.30+/-0.05) [1] [log] | log IC50 of isoproterenol (ISO), competition radioligand binding, in the presence of Gs (no transducer: -6.91+/-0.04) [2] [log] | fold increase of isoproterenol affinity by the transducer [1] [fold] | log IC50 of isoproterenol (ISO), [125I]-CYP competition binding, in the presence of Gs (no transducer: -6.24+/-0.04) [1] [log] | log IC50 of isoproterenol (ISO), [125I]-CYP competition binding, in the presence of Gs (no transducer: -6.42+/-0.09) [3] [log] | fold increase of isoproterenol affinity by the transducer [4] [fold] | log IC50 of isoproterenol (ISO), [125I]-CYP competition binding, in the presence of Gs (no transducer: -6.82+/-0.03) [4] [log] | log IC50 of isoproterenol (ISO), [125I]-CYP competition binding, in the presence of βarr1 (no transducer: -6.24+/-0.04) [1] [log] | log IC50 of isoproterenol (ISO), competition radioligand binding, in the presence of βarr1 (no transducer: -6.30+/-0.05) [1] [log] | Substance
1 | -6.48 |  |  |  |  |  |  |  |  | finger loop deletion mutant of β-arrestin1 (βarr1 Δ62-77) in βarr1-MC-393 (from UniProt P29066 1-61; P29066 78-393)
2 |  | -8.85 | 800 | -9.15 | -9.02 | 1000 | -8.88 |  |  | heterotrimeric Gs protein (short Gαs splice variant, Gβ1-His6, Gγ2) (from UniProt P62873 2-340; P59768 2-68)
3 |  |  | 9 |  |  |  |  | -7.14 | -7.25 | β-arrestin1, minimal cysteine and truncated variant of rat βarr1 (βarr1-MC-393) (from UniProt P29066 1-393)
